This experiment addresses T1, OP-1 pro domain polypeptide (human, UniProt P18075 30-292).
T1 construct: Two pro domains (39 kDa each) stand in the soluble complex with one mature dimer; The complex was isolated from CHO conditioned medium; also called pro domain peptide
Briefly: soluble complex purified from CHO conditioned medium without denaturants (Zn-IMAC, S-Sepharose, Sephacryl S-200HR gel filtration); elutes at an apparent 110 kDa. The procedure:
In this example, OP-1 was expressed in mammalian (CHO, Chinese hamster ovary) cells as described in the art (see, for example, international application US90/05903 (WO 91/05802). The CHO cell conditioned media containing 0.5% FBS is initially purified using Immobilized Metal-Ion Affinity Chromatography (IMAC). The soluble OP-1 complex from conditioned media binds very selectively to the Zn-IMAC resin and a high concentration of imidazole (50 mM imidazole, pH 8.0) is required for the effective elution of the bound complex. The Zn-IMAC purified soluble OP-1 is next applied to an S-Sepharose action-exchange column equilibrated in 20 mM NaPO₄ (pH 7.0) with 50 mM NaCl. The protein then is applied to a Sephacryl S-200HR column equilibrated in TBS. Using substantially the same protocol, soluble morphogens can also be isolated from one or more body fluids, including milk, serum, cerebrospinal fluid or peritoneal fluid.
A general note: In gel filtration, larger molecules generally elute earlier.

T1 sequence (P18075 30-292): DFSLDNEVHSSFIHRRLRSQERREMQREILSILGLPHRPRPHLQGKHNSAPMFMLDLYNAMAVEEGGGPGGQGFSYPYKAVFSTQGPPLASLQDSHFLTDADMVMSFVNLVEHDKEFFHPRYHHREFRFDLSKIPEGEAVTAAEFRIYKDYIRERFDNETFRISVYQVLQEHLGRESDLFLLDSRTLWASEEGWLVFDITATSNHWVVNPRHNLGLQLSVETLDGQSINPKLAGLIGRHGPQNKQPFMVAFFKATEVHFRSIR

B1: mature human OP-1 dimer (recombinant, expressed in CHO cells) (ligand)
chain: STGSKQRSQNRSKTPKNQEALRMANVAENSSSDQRQACKKHELYVSFRDLGWQDWIIAPEGYAAYYCEGECAFPLNSYMNATNHAIVQTLVHFINPETVPKPCCAPTQLNAISVLYFDDSSNVILKKYRNMVVRACGCH
notes: Dimer of 35-36 kDa, glycosylated when made in CHO cells; also called hOP-1; human osteogenic protein 1
Turning to B1, the binding result was “binds”.
